Data from article PMC6910952 (Nature Communications, 2019).
No end group written: not given here.

Tests used:
Assay in all cases: fluorescence polarisation; fluorescence anisotropy; 1 nM FlAsH-labeled His6-SUMO-yUfd1 peptide, His6-yNpl4^113–580 in two-fold dilution series; 25 °C; 50 mM Tris-HCl pH 8.0, 100 mM NaCl, 5 mM β-mercaptoethanol, 0.1 g/L BSA
Conditions in all cases: both partners purified
[1] = target: T1, His6-yNpl4^113–580 F326A (Saccharomyces cerevisiae, UniProt P33755 113-580, F326A)
T1 construct: also called yNpl4 F326A; source: E. coli Rosetta (DE3), purified (Ni-NTA, Resource Q); not shown: His6, N-terminal, kept
T1 sequence (looked up): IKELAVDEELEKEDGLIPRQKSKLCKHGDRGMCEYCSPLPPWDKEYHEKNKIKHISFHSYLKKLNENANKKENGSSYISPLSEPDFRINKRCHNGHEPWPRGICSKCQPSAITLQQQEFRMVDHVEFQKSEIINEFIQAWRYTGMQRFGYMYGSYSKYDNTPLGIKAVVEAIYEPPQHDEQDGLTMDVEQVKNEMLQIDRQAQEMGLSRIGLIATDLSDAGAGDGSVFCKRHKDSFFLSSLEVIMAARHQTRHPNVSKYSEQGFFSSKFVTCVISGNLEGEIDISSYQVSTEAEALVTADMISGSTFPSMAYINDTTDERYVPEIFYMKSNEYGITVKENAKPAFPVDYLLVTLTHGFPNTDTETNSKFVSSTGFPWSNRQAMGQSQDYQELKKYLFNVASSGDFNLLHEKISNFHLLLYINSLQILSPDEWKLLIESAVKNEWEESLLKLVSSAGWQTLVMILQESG

[2] = target: T2, His6-yNpl4^113–580 L296A (Saccharomyces cerevisiae, UniProt P33755 113-580, L296A)
T2 construct: also called yNpl4 L296A; source: E. coli Rosetta (DE3), purified (Ni-NTA, Resource Q); not shown: His6, N-terminal, kept
T2 sequence (looked up): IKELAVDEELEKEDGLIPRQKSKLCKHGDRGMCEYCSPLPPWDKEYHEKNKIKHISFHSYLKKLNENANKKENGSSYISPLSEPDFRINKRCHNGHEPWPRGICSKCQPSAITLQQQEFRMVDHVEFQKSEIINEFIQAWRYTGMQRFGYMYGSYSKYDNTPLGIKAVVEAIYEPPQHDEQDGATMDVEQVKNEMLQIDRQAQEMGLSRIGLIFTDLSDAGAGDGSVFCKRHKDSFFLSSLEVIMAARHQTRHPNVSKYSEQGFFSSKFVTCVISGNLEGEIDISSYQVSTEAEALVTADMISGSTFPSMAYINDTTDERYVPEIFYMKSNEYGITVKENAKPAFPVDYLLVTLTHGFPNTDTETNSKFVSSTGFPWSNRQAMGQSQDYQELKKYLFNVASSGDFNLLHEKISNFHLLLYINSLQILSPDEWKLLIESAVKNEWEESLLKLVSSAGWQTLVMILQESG

[3] = target: T3, His6-yNpl4^113–580 R364A (Saccharomyces cerevisiae, UniProt P33755 113-580, R364A)
T3 construct: also called yNpl4 R364A; source: E. coli Rosetta (DE3), purified (Ni-NTA, Resource Q); not shown: His6, N-terminal, kept
T3 sequence (looked up): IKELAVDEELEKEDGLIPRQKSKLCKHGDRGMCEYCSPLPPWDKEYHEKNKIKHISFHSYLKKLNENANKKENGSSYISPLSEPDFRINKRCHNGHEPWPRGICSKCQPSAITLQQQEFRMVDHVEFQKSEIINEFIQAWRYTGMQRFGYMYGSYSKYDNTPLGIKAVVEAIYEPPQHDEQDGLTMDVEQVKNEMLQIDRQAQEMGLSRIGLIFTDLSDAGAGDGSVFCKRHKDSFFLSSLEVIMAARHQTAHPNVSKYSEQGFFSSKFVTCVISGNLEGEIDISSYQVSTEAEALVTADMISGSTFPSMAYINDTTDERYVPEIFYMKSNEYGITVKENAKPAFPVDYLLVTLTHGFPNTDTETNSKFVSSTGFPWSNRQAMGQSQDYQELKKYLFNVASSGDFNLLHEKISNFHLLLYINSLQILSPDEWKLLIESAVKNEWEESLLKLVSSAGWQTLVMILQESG

[4] = target: T4, His6-yNpl4^113–580 Y424A (Saccharomyces cerevisiae, UniProt P33755 113-580, Y424A)
T4 construct: also called yNpl4 Y424A; source: E. coli Rosetta (DE3), purified (Ni-NTA, Resource Q); not shown: His6, N-terminal, kept
T4 sequence (looked up): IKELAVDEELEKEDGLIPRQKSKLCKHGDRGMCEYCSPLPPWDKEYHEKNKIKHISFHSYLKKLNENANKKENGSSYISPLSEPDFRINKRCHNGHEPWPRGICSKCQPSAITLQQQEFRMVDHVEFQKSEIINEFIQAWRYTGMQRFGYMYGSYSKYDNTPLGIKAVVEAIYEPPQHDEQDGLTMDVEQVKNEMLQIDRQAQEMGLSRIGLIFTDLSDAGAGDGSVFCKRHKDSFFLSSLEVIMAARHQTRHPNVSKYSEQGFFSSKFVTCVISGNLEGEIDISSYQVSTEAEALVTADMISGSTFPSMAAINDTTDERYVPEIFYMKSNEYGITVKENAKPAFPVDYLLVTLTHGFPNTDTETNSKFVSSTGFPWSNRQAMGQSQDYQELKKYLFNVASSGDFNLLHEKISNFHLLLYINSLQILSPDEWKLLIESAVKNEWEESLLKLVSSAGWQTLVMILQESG

B1: FlAsH-labeled His6-SUMO-yUfd1^288–305-GWCCPGCC (peptide, UniProt P53044 288-305, looked up)
chain: {His6-SUMO}-EPAKLDLPEGQLFFGFPMGWCCPGCC
modifications: cysteine pairing not given here; also: FlAsH label bound to CCPGCC motif
notes: the assay methods print 280-305; also called yUfd1-FlAsH; yUfd1 WT; source: E. coli Rosetta (DE3) (pCold-SUMO), purified (Ni-NTA, Resource Q), labeled with FlAsH-EDT2; not shown: His6, N-terminal, kept; SUMO, N-terminal, kept
For B1, the Kd [1] was 0.257 µM, the Kd [2] was 7.02 µM and the Kd [3] was 0.314 µM. The Kd [4] was 8.45 µM.
